Blank lines part the entries; values can stand above or below the molecule they belong to. Square brackets hold non-standard residues; d marks the D form. Ends that are not written are not given here. pS = N[C@@H](COP(=O)(O)O)C(=O)O
Tests used:
[1] = target: His-SUMO-tagged MLL3 SET domain (UniProt Q8NEZ4); experiment: pull-down
Ash2L SPRY domain [2] = target: Ash2L SPRY domain (UniProt Q9UBL3); experiment: isothermal titration calorimetry; conditions: reference: unmodified RbBP5 344-357 peptide; sites S350
Chain of UniProt Q9UBL3 (Q9UBL3 380-598): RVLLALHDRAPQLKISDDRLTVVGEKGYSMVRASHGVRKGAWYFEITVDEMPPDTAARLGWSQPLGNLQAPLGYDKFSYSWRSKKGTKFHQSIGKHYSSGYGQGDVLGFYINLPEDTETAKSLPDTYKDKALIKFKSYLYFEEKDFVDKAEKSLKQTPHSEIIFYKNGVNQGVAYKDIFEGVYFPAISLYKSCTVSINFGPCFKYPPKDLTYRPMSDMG

Ash2L SPRY domain [3] = experiment: ITC

Chain of UniProt Q8NEZ4 (Q8NEZ4 4771-4887): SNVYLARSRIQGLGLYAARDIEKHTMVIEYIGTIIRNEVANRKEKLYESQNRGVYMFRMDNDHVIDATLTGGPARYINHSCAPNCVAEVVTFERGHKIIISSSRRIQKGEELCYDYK
Chain of RbBP5 344-357 (Q15291 whole entry, looked up, change not shown, the tested form may be a part): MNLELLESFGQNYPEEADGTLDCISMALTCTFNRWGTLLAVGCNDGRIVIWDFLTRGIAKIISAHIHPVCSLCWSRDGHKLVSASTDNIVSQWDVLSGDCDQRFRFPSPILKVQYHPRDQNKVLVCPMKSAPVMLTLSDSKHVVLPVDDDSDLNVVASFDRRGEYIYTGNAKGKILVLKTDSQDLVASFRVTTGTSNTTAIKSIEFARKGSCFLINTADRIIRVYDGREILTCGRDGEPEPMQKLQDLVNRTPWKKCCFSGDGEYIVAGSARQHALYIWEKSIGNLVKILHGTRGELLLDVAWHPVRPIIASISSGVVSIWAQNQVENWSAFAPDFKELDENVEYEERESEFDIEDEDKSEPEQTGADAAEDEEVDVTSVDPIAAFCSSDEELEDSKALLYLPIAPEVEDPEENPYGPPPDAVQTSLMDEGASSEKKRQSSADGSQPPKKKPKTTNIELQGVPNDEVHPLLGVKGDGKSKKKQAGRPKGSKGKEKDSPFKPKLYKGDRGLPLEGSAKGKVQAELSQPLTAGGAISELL

fold increase in binding against Ash2L/RbBP5 [1]: 5 fold
Molecule: Ash2L/RbBP5^phos heterodimer (from UniProt Q9UBL3 1-628; Q15291 1-538) (complex)

fold change (Ash2L SPRY domain [2]): stronger
Molecule: RbBP5 344-357 (from UniProt Q15291) pS350 RbBP5 344-357 peptide

fold higher affinity against the unmodified peptide (Ash2L SPRY domain [3]): 15 fold
Molecule: EYEERE[pS]EFDIEDE [phosphorylated peptide RbBP5 344-357 (phospho-S350), Q15291 344-357]

Source: paper PMC4298132
